Source: article PMC6294707 (Molecular and cellular neurosciences, 2018)

T1: SAP90/PSD-95 associated protein 3 (endogenous, mouse brain) (mouse (endogenous in striatum), UniProt Q6PFD5 1-977)
T1 sequence (looked up): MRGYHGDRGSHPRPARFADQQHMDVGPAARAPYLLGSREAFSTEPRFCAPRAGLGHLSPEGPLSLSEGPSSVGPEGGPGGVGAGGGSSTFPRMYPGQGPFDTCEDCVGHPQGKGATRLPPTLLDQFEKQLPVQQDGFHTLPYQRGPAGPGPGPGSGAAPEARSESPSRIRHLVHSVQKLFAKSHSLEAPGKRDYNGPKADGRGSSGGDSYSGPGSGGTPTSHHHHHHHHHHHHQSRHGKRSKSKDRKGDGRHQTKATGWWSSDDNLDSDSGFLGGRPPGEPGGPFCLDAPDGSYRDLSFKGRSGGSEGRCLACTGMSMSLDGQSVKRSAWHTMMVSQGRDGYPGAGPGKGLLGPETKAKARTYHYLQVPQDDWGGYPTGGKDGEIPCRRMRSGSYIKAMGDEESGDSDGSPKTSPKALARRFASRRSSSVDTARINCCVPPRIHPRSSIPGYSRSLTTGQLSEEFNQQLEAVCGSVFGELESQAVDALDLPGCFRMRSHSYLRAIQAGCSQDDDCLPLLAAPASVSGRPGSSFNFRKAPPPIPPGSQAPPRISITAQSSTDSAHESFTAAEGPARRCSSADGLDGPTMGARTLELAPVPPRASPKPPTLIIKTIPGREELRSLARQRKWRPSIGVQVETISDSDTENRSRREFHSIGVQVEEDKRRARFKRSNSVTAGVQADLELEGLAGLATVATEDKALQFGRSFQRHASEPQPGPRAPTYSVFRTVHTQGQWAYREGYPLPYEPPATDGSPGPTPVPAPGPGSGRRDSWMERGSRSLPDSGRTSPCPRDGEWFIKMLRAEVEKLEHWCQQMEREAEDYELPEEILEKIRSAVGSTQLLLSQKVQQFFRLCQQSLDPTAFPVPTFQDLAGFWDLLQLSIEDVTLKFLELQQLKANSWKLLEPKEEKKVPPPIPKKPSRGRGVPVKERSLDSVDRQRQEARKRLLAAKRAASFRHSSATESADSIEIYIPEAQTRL


What was measured:
[1] = biological target: HA-tagged spinophilin (human, full-length) (human, UniProt Q96SB3 1-817); test: co-IP
[2] = biological target: T1, SAP90/PSD-95 associated protein 3 …; test: co-IP

Sequence of HA-tagged spinophilin (human, full-length) (Q96SB3 whole entry): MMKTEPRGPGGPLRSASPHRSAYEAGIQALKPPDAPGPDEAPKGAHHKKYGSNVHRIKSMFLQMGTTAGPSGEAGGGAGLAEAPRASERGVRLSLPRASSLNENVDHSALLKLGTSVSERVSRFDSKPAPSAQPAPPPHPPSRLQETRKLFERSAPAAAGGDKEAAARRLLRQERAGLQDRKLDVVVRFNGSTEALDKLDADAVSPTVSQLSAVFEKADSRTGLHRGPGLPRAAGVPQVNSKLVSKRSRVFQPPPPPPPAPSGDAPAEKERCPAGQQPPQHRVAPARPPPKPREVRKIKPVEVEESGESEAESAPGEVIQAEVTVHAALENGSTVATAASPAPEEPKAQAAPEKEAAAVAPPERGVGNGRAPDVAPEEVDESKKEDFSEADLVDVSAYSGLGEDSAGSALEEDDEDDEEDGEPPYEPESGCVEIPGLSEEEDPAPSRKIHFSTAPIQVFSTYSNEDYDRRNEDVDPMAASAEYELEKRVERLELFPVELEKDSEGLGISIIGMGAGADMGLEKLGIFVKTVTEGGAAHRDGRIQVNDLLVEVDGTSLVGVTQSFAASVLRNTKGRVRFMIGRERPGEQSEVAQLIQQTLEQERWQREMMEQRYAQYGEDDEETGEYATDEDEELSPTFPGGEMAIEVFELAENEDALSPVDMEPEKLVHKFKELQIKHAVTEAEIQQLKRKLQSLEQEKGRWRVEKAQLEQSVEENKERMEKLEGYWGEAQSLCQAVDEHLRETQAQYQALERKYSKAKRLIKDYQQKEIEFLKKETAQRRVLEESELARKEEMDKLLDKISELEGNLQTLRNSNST

Row | Binder | fold change of association, PKCbeta overexpressed and activated over control [1] [fold] | fold change of association, mGluR5 overexpressed over control [1] [fold] | fold greater association, WT over SAPAP3 KO [2] [fold]
1 | V5-tagged SAPAP3 (rat) (natural protein, UniProt P97838 1-977, looked up) MRGYHGDRGSHPRPARFADQQHMDVGPAARAPYLLGSREAFSTEPRFCAPRAGLGHLSPEGPLSLSEGPSSVGPEGGPGGVGAGGSSSTFPRMYPGQGPFDTCEDCVGHPQGKGATRLLPTFLDQFEKQLPVQQDGFHTLPYQRGPAGPGPGPGSGAAPEARSESPSRIRHLVHSVQKLFAKSHSLEAPGKRDYNGPKAEGRSSSGGDSYSGPGSGGPPTSHHHHHHHHHHHHQSRHGKRSKSKDRKGDGRHQTKATGWWSSDDNLDSDSGFLGGRPPGEPGGPFCLDAPDGSYRDLSFKGRSGGSEGRCLACTGMSMSLDGQSVKRSAWHTMMVSQGRDGYPGAGPGKGLLGPETKAKARTYHYLQVPQDDWGGYPTGGKDGEIPCRRMRSGSYIKAMGDEESGDSDGSPKTSPKALARRFASRRSSSVDTARINCCVPPRIHPRSSIPGYSRSLTTGQLSEEFNQQLEAVCGSVFGELESQAVDALDLPGCFRMRSHSYLRAIQAGCSQDDDCLPLLAAPASVSGRPGSSFNFRKAPPPIPPGSQAPPRISITAQSSTDSAHESFTAAEGPARRCSSADGLDGPTMGARTLELAPVPPRASPKPPTLIIKTIPGREELRSLARQRKWRPSIGVQVETISDSDTENRSRREFHSIGVQVEEDKRRARFKRSNSVTAGVQADLELEGLAGLATVATEDKALQFGRPFQRQASEPQPGPRAPTYSVFRTVHTQGQWAYREGYPLPYEPPATDGSPGPPPVPAPGPGSGRRDSWMERGSRSLPDSGRTSPCPRDGEWFIKMLRAEVEKLEHWCQQMEREAEDYELPEEILEKIRSAVGSTQLLLSQKVQQFFRLCQQSLDPTAFPVPTFQDLAGFWDLLQLSIEDVTLKFLELQQLKANSWKLLEPKEEKKVPPPIPKKPSRGRGVPVKERSLDSVDRQRQEARKRLLAAKRAASFRHSSATESADSIEIYIPEAQTRL | ~3.3 | ~12 | –
2 | spinophilin (endogenous, mouse brain) (natural protein) not shown | – | – | ~3
